# Several values for one entry are separate records, joined by “and”; a condition that tells them apart may be missing. Equal entries are not always repeated.
# Target: GFP-tagged TDP-43-ΔNLS-KQ (GFP-TDP43-ΔNLS-K145Q, pTX066) (human) (UniProt Q13148)
# Assay: non-reducing SDS-PAGE and immunoblot of immunoprecipitated aggregates
substance,measurement,value
"GFP-tagged TDP-43-ΔNLS-KQ (GFP-TDP43-ΔNLS-K145Q, pTX066) (from UniProt Q13148 1-414) (natural protein)",stoichiometry N,2 and 4

# Reference: publication PMC10173608
